Assay results taken from US20090118184A1 (UNIVERSITY OF ROCHESTER, published 2009).
Residue numbers refer to the chain shown, from its start. Numbers in names are those of the source.

T1: factor VIIIa A1/A3C1C2 dimer, wild type (human, UniProt P00451 20-391; P00451 1709-2351)
T1 sequence 1: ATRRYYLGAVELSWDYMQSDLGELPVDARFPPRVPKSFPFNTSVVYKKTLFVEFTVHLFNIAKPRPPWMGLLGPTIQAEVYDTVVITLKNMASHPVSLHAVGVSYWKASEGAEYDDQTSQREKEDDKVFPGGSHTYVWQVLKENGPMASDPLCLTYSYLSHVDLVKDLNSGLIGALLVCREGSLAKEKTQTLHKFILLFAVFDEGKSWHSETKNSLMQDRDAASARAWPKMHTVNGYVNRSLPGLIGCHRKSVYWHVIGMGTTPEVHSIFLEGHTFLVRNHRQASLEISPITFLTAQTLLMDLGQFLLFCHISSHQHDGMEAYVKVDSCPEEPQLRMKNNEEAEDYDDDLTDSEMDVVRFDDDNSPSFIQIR
T1 sequence 2: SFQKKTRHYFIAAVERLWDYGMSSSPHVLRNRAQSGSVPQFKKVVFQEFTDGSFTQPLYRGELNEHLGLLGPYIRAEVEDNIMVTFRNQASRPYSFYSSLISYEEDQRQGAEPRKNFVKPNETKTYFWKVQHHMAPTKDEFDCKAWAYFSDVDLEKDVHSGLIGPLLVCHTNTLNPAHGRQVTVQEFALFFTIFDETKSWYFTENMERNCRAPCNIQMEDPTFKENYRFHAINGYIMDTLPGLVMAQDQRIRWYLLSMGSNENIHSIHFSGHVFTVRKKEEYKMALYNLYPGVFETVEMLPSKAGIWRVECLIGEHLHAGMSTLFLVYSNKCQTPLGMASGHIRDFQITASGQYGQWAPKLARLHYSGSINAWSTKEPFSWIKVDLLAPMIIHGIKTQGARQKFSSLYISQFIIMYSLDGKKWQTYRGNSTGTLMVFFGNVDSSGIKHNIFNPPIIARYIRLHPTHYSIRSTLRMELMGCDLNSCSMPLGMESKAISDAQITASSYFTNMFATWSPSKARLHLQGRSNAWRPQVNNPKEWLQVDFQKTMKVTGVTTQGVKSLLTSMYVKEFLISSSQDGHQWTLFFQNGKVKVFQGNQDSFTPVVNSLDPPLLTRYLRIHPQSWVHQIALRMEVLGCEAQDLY

T2: factor VIIIa A1/A3C1C2 dimer, Glu113Ala (human, UniProt P00451 20-391; P00451 1709-2351)
T2 chain 1: T1 sequence 1 with E113A
T2 chain 2: T1 sequence 2

T3: factor VIIIa A1/A3C1C2 dimer, Glu1984Ala (human, UniProt P00451 20-391; P00451 1709-2351)
T3 sequence 1: T1 sequence 1
T3 sequence 2: T1 sequence 2 with E295A

T4: factor VIIIa A1/A3C1C2 dimer, Glu1984Val (human, UniProt P00451 20-391; P00451 1709-2351)
T4 sequence 1: T1 sequence 1
T4 sequence 2: T1 sequence 2 with E295V

B1: factor VIIIa A2 subunit, S524A (other)
chain: SVAKKHPKTWVHYIAAEEEDWDYAPLVLAPDDRSYKSQYLNNGPQRIGRKYKKVRFMAYTDETFKTREAIQHESGILGPLLYGEVGDTLLIIFKNQASRPYNIYPHGITDVRPLYSRRLPKGVKHLKDFPILPGEIFKYKWTVTVEDGPTKADPRCLTRYYSSFVNMERDLASGLIGPLLICYKESVDQRGNQIMSDKRNVILFSVFDENRSWYLTENIQRFLPNPAGVQLEDPEFQASNIMHSINGYVFDSLQLSVCLHEVAYWYILSIGAQTDFLSVFFSGYTFKHKMVYEDTLTLFPFSGETVFMSMENPGLWILGCHNSDFRNRGMTALLKVSSCDKNTGDYYEDSYEDISAYLLSKNNAIEPR
B2: factor VIIIa A2 subunit, N684A (other)
chain: B1 chain with A152S, N312A
B3: factor VIIIa A2 subunit, N538A (other)
chain: B1 chain with A152S, N166A
B4: factor VIIIa A2 subunit, D696A (other)
chain: B1 chain with A152S, D324A
B5: factor VIIIa A2 subunit, T522A (other)
chain: B1 chain with T150A, A152S
B6: factor VIIIa A2 subunit, E540A (other)
chain: B1 chain with A152S, E168A
B7: factor VIIIa A2 subunit, E683A (other)
chain: B1 chain with A152S, E311A
B8: factor VIIIa A2 subunit, S695A (other)
chain: B1 chain with A152S, S323A
B9: factor VIIIa A2 subunit, Y476F (other)
chain: B1 chain with Y104F, A152S
B10: factor VIIIa A2 subunit, S650A (other)
chain: B1 chain with A152S, S278A
B11: factor VIIIa A2 subunit, D666A (other)
chain: B1 chain with A152S, D294A
B12: factor VIIIa A2 subunit, R531A (other)
chain: B1 chain with A152S, R159A
B13: factor VIIIa A2 subunit, S654A (other)
chain: B1 chain with A152S, S282A
B14: factor VIIIa A2 subunit, Y664F (other)
chain: B1 chain with A152S, Y292F
B15: factor VIIIa A2 subunit, Glu665Val (other)
chain: B1 chain with A152S, E293V
B16: factor VIIIa A2 subunit, D519A and E665A (other)
chain: B1 chain with D147A, A152S, E293A
B17: factor VIIIa A2 subunit, D519A and E665V (other)
chain: B1 chain with D147A, A152S, E293V
B18: factor VIIIa A2 subunit, D519V and E665V (other)
chain: B1 chain with D147V, A152S, E293V

Target: T1, factor VIIIa A1/A3C1C2 dimer, wild type
Experiment: cell-based or functional assay

Factor VIIIa decay rate relative to wild type, FIXa (+) | Factor VIIIa decay rate relative to wild type, FIXa (-) | Factor VIIIa decay rate, FIXa (+) [min⁻¹] | Factor VIIIa decay rate, FIXa (-) [min⁻¹] | Binder
40.4 relative to wild type | 7 relative to wild type | 0.455 | 0.442 | B1
36.3 relative to wild type | 18.8 relative to wild type | 0.41 | 1.18 | B2
1.28 relative to wild type | – | 0.0144 | – | B3
1.05 relative to wild type | – | 0.0118 | – | B4
2.39 relative to wild type | – | 0.027 | – | B5
0.81 relative to wild type | – | 0.0091 | – | B6
2.33 relative to wild type | – | 0.0263 | – | B7
0.75 relative to wild type | – | 0.0085 | – | B8
1.23 relative to wild type | – | 0.0139 | – | B9
2.81 relative to wild type | – | 0.0317 | – | B10
4.83 relative to wild type | – | 0.0545 | – | B11
6.72 relative to wild type | – | 0.0758 | – | B12
1.28 relative to wild type | – | 0.0145 | – | B13
1.31 relative to wild type | – | 0.0148 | – | B14

Target: T2, factor VIIIa A1/A3C1C2 dimer, Glu113Ala
Experiment: cell-based or functional assay

Decay rate relative to wild type, Factor VIIIa (1.5 nM, factor IXa absent) | Decay rate, Factor VIIIa (1.5 nM factor VIIIa, factor IXa absent) [min⁻¹] | Binder
0.24 relative to wild type | 0.0333 | B15

Target: T1, factor VIIIa A1/A3C1C2 dimer, wild type
Experiment: cell-based or functional assay
Remark: another data set of the same source

Factor VIIIa Decay relative to the WT value, Factor IXa absent | Factor VIIIa Decay relative to the WT value, Factor IXa present | Factor VIIIa Decay, Factor IXa absent [min⁻¹] | Factor VIIIa Decay, Factor IXa present [min⁻¹] | Binder
0.19 relative to WT | 0.34 relative to WT | 0.016 | 0.0052 | B15

Target: T1, factor VIIIa A1/A3C1C2 dimer, wild type
Experiment: cell-based or functional assay
Remark: another data set of the same source

Decay rate relative to wild type, Factor VIIIa (1.5 nM, factor IXa absent) | Decay rate, Factor VIIIa (1.5 nM factor VIIIa, factor IXa absent) [min⁻¹] | Binder
0.28 relative to wild type | 0.0395 | B15
0.25 relative to wild type | 0.0352 | B16
0.16 relative to wild type | 0.0222 | B17
0.14 relative to wild type | 0.0198 | B18

Target: T3, factor VIIIa A1/A3C1C2 dimer, Glu1984Ala
Experiment: cell-based or functional assay

Decay rate relative to wild type, Factor VIIIa (1.5 nM, factor IXa absent) | Decay rate, Factor VIIIa (1.5 nM factor VIIIa, factor IXa absent) [min⁻¹] | Binder
0.26 relative to wild type | 0.036 | B15
0.17 relative to wild type | 0.0235 | B17
0.1 relative to wild type | 0.0142 | B18

Target: T4, factor VIIIa A1/A3C1C2 dimer, Glu1984Val
Experiment: cell-based or functional assay

Decay rate relative to wild type, Factor VIIIa (1.5 nM, factor IXa absent) | Decay rate, Factor VIIIa (1.5 nM factor VIIIa, factor IXa absent) [min⁻¹] | Binder
0.48 relative to wild type | 0.0671 | B15
0.16 relative to wild type | 0.0227 | B18
